From the supplement of paper PMC9112550, “Optimization of the antimicrobial peptide Bac7 by deep mutational scanning” (BMC Biology, 2022)

Test system: Escherichia coli TOP10
Test: shrunken log2 fold change of peptide-encoding DNA abundance (4.5 h post-induction vs induction); higher = less antimicrobial activity (less host growth inhibition)
Details: time post-induction: 4.5 h; library: site-saturation at positions 5, 18, 19, 20
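Note: peptides expressed intracellularly from a pBAD plasmid library in pooled LB shake-flask culture, induced with 0.3% L-arabinose, DNA abundance read by NGS, three biological replicates, DESeq2 with apeglm shrinkage.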

| Sequence | shrunken log2 fold change |
| --- | --- |
| RRIRRRPPRLPRPRPRPNAVPRP | 0.23 |
| RRIRGRPPRLPRPRPRPKKNPRP | 0.778 |
| RRIRIRPPRLPRPRPRPRCCPRP | -0.181 |
| RRIRKRPPRLPRPRPRPAFLPRP | 0.245 |
| RRIRLRPPRLPRPRPRPPTIPRP | 0.168 |
| RRIRFRPPRLPRPRPRPTFAPRP | 0.0698 |
| RRIRRRPPRLPRPRPRPTCHPRP | 0.0647 |
| RRIRERPPRLPRPRPRPDSPPRP | -0.184 |
| RRIRVRPPRLPRPRPRPVLFPRP | 0.00022 |
| RRIRTRPPRLPRPRPRPWMMPRP | 0.0505 |
| RRIRWRPPRLPRPRPRPECDPRP | 1.93 |
| RRIRTRPPRLPRPRPRPWPEPRP | 0.0147 |
| RRIRRRPPRLPRPRPRPWQQPRP | -0.0108 |
| RRIRSRPPRLPRPRPRPHHNPRP | -0.708 |
| RRIRTRPPRLPRPRPRPNGPPRP | -0.277 |
| RRIRPRPPRLPRPRPRPFEEPRP | -0.00852 |
| RRIRLRPPRLPRPRPRPCQVPRP | -0.128 |
| RRIRVRPPRLPRPRPRPVCTPRP | 0.165 |
| RRIRERPPRLPRPRPRPCSMPRP | -0.0884 |
| RRIRYRPPRLPRPRPRPFACPRP | 0.0731 |
| RRIRARPPRLPRPRPRPDISPRP | 0.277 |
| RRIRHRPPRLPRPRPRPGPKPRP | -0.0906 |

| Sequence | shrunken log2 fold change |
| --- | --- |
| RRIRRRPPRLPRPRPRPECRPRP | 0.272 |
| RRIRKRPPRLPRPRPRPDCIPRP | 0.75 |
| RRIRNRPPRLPRPRPRPLQGPRP | 0.0149 |
| RRIRWRPPRLPRPRPRPGGIPRP | 0.22 |
| RRIRIRPPRLPRPRPRPLPYPRP | -0.565 |
| RRIRMRPPRLPRPRPRPCREPRP | -0.126 |
| RRIRWRPPRLPRPRPRPAQDPRP | 0.415 |
| RRIRYRPPRLPRPRPRPPIEPRP | -0.154 |
| RRIRKRPPRLPRPRPRPLGGPRP | 0.288 |
| RRIRFRPPRLPRPRPRPSHYPRP | -0.762 |
| RRIRMRPPRLPRPRPRPYHWPRP | -0.101 |
| RRIRYRPPRLPRPRPRPGRDPRP | -0.204 |
| RRIRVRPPRLPRPRPRPPCSPRP | -0.116 |
| RRIRFRPPRLPRPRPRPPTTPRP | 0.276 |
| RRIRIRPPRLPRPRPRPFKVPRP | -0.0829 |
| RRIRGRPPRLPRPRPRPPCKPRP | 0.339 |
| RRIRFRPPRLPRPRPRPVKNPRP | -0.0401 |
| RRIRQRPPRLPRPRPRPTRNPRP | 0.185 |
| RRIRPRPPRLPRPRPRPKALPRP | 0.461 |
| RRIRSRPPRLPRPRPRPHSSPRP | 0.171 |
| RRIRMRPPRLPRPRPRPMAQPRP | -0.0018 |
| RRIRQRPPRLPRPRPRPLMYPRP | -0.608 |

| Sequence | shrunken log2 fold change |
| --- | --- |
| RRIRPRPPRLPRPRPRPKCQPRP | 0.0931 |
| RRIRERPPRLPRPRPRPDRLPRP | -0.147 |
| RRIRFRPPRLPRPRPRPITPPRP | -0.128 |
| RRIRLRPPRLPRPRPRPFNVPRP | -0.485 |
| RRIRRRPPRLPRPRPRPRPYPRP | 1.17 |
| RRIRSRPPRLPRPRPRPYTPPRP | -1.07 |
| RRIRYRPPRLPRPRPRPIPVPRP | -0.0888 |
| RRIRLRPPRLPRPRPRPSDHPRP | -0.293 |
| RRIRERPPRLPRPRPRPKVNPRP | -0.389 |
| RRIRERPPRLPRPRPRPVWTPRP | -0.00115 |
| RRIRCRPPRLPRPRPRPEFDPRP | -0.0199 |
| RRIRWRPPRLPRPRPRPIDKPRP | -0.105 |
| RRIRWRPPRLPRPRPRPKMWPRP | 0.737 |
| RRIRMRPPRLPRPRPRPTGNPRP | 0.496 |
| RRIRQRPPRLPRPRPRPSVYPRP | -0.643 |
| RRIRYRPPRLPRPRPRPNTAPRP | -0.0149 |
| RRIRQRPPRLPRPRPRPNESPRP | -0.0813 |
| RRIRSRPPRLPRPRPRPDTDPRP | 0.0794 |
| RRIRQRPPRLPRPRPRPSIVPRP | -0.323 |
| RRIRKRPPRLPRPRPRPGCHPRP | 0.0456 |
| RRIRYRPPRLPRPRPRPIEDPRP | -0.274 |
| RRIRTRPPRLPRPRPRPRMDPRP | -0.38 |

| Sequence | shrunken log2 fold change |
| --- | --- |
| RRIRMRPPRLPRPRPRPLMYPRP | -0.295 |
| RRIRLRPPRLPRPRPRPYDAPRP | -0.211 |
| RRIRFRPPRLPRPRPRPKYCPRP | 0.124 |
| RRIRCRPPRLPRPRPRPCCLPRP | -0.35 |
| RRIRKRPPRLPRPRPRPWDSPRP | 0.0485 |
| RRIRLRPPRLPRPRPRPLYHPRP | -0.648 |
| RRIRGRPPRLPRPRPRPAKQPRP | 0.199 |
| RRIRPRPPRLPRPRPRPKCLPRP | -0.0739 |
| RRIRTRPPRLPRPRPRPNTIPRP | -0.596 |
| RRIRVRPPRLPRPRPRPQVQPRP | -0.208 |
| RRIRLRPPRLPRPRPRPTKIPRP | 0.0747 |
| RRIRIRPPRLPRPRPRPDFSPRP | -0.175 |
| RRIRTRPPRLPRPRPRPFGWPRP | 0.189 |
| RRIRHRPPRLPRPRPRPVYKPRP | -0.665 |
| RRIRTRPPRLPRPRPRPEGWPRP | 0.688 |
| RRIRMRPPRLPRPRPRPQKYPRP | 0.136 |
| RRIRYRPPRLPRPRPRPQQWPRP | 0.155 |
| RRIRPRPPRLPRPRPRPQCHPRP | -0.457 |
| RRIRQRPPRLPRPRPRPKASPRP | -0.0573 |
| RRIRMRPPRLPRPRPRPTFWPRP | 0.916 |
| RRIRERPPRLPRPRPRPKKQPRP | -0.0932 |
| RRIRFRPPRLPRPRPRPMRCPRP | 0.0196 |

| Sequence | shrunken log2 fold change |
| --- | --- |
| RRIRWRPPRLPRPRPRPKMYPRP | -0.13 |
| RRIRGRPPRLPRPRPRPAHIPRP | 0.0667 |
| RRIRYRPPRLPRPRPRPQKAPRP | -0.0304 |
| RRIRFRPPRLPRPRPRPFRKPRP | -0.122 |
| RRIRDRPPRLPRPRPRPDPMPRP | 0.0611 |
| RRIRFRPPRLPRPRPRPVYSPRP | -0.12 |
| RRIRPRPPRLPRPRPRPEGWPRP | 1.82 |
| RRIRHRPPRLPRPRPRPHQYPRP | -0.52 |
| RRIRARPPRLPRPRPRPCKYPRP | -0.201 |
| RRIRTRPPRLPRPRPRPFRNPRP | 0.0337 |
| RRIRMRPPRLPRPRPRPSNCPRP | -0.376 |
| RRIRWRPPRLPRPRPRPNLFPRP | 0.144 |
| RRIRQRPPRLPRPRPRPMNIPRP | -0.809 |
| RRIRIRPPRLPRPRPRPLQPPRP | 0.327 |
| RRIRNRPPRLPRPRPRPQVMPRP | 0.06 |
| RRIRHRPPRLPRPRPRPFMEPRP | -1 |
| RRIRDRPPRLPRPRPRPEHLPRP | -0.00213 |
| RRIRARPPRLPRPRPRPPKCPRP | 0.274 |
| RRIRSRPPRLPRPRPRPMQCPRP | -0.0018 |
| RRIRYRPPRLPRPRPRPLDFPRP | -0.269 |
| RRIRQRPPRLPRPRPRPKGNPRP | -0.365 |
